Measured values from the RNAGym collection of RNA variant scans (doi:10.7554/elife.90254).

B1: OR4K15 (parent)
chain: GUUAACGGUCAUAGGCCAUGGAAACUAGGAGCACCAUUUCGCUGCCAGUGAAGAAAUGAACAAAGAAAAUCUGGGCCAGGCAGGCAUCAAAAGAAAUAGUCUUGCGCUCAACCAGAAAGUCUGUAAUCAUUUUAAGGGUA

Variants of: B1
Assay: self-cleavage, relative activity (ratio to wild type); higher = more cleavage; in vitro, sequencing; the parent is a self-cleaving ribozyme

Compared with GUUAACUGUCAUAGGCCAUGAAAACUAGGAGCACCAUUUCGCUGCCAGUGAAGAAAUGAACAAAGAAAAUCUGGGCCAGGCAGGCAUCAAAAGAAAUAGUCUUGCGCUCAACCAGAAAGUCUGUAAUCAUUUUAAGGGUA [G7U G21A], GUUAACGGUCAUAGGCCAUGGAAACUAGGAGCACCAUUUCGCUGCCAGUGAUGAAAUGAACAAAGUAAAUCUGGGCCAGGCAGGCAUCAAAAGAAAUAGUCUUGCGCUCAACCAGAAAGUCUGUAAUCAUUUUAAGGGUA [A52U A66U] is higher in self-cleavage: 0.87 for the first, 1.48 for the second.

Compared with GUUAACGGUCAUAGGCCAUGGAAACUAGGAGCACCAUUUCGCUGCCAGUGAAGAAAUGAACAAAGAAAAUCUGGGCCAGGCAGGCAUCCAAAGAAAUAGUCUUGCGCUCAACCAGAUAGUCUGUAAUCAUUUUAAGGGUA [A89C A117U], GUUAACGGUCAUAGGCCAUGGAAACUAGGAGCACCAUUUCGCUGCCAGUGAAGAAAUGAUCAAAGAAAAUCUGGGCCAGGCAGGCAUCAAAAGAGAUAGUCUUGCGCUCAACCAGAAAGUCUGUAAUCAUUUUAAGGGUA [A60U A95G] is higher in self-cleavage: 0.98 for the first, 1.6 for the second.

First: GUUAACGGUCAUAGGCCAUGGGAACUAGGAGCACCAUUUCGCUGCCAGUGAAGAAAUGAACAAAGAAAAUCUGGGCCAGGCAGGCAUCAAAAGAAAUAGUCUUGCGCUCAACCAGAAAGUCUGUAAUCAUUUUGAGGGUA [A22G A134G]
Second: GUUAACGGUCAUAGGCCAUGGAAACUAGGAGCACCAUUUCGCUGCCAGUGAAGAAAUGAACAAAGAAAAUCUGGGCCAGGCAGGCAUCAAAAGAAAUAGACUUGCGCUCAACCAGAAAGUCUGUAAUCAUUUUGAGGGUA [U100A A134G]
The self-cleavage of the first is higher: 1.02 for the first, 0.37 for the second.

Going from GUUAACGGUCAUAGGCCAUGGAAACUAGGAGCACCAUUUCGCUGCCAGUGAAGAAAUGAGCAAAGAAAAUCUGGGCCAGGCAGGCAUCAAAAGAAAUAGCCUUGCGCUCAACCAGAAAGUCUGUAAUCAUUUUAAGGGUA [A60G U100C] to GUUAACGGUCAUAGGCCAUGGAACCUAGGAGCACCAUUUCGCAGCCAGUGAAGAAAUGAACAAAGAAAAUCUGGGCCAGGCAGGCAUCAAAAGAAAUAGUCUUGCGCUCAACCAGAAAGUCUGUAAUCAUUUUAAGGGUA [A24C U43A], the self-cleavage falls from 1.35 to 0.67.

Compared with GUUAACGGUCAUAGGCCAUGGAAACUAGGAGCACCAUUUCGCUGCCAGUGAAGAAAUGAACAAAGAAAAUCUGGGCCUGGCAGGCAUCAAAAGAUAUAGUCUUGCGCUCAACCAGAAAGUCUGUAAUCAUUUUAAGGGUA [A78U A95U], GUUAACGGUCAUAGGCCAUGGAAACUAGGAGCACCAUUUCGCUGCCAGUGAAGAAACGAACAAAGAAAAUCUGGGCCAGGCUGGCAUCAAAAGAAAUAGUCUUGCGCUCAACCAGAAAGUCUGUAAUCAUUUUAAGGGUA [U57C A82U] is higher in self-cleavage: 0.2 for the first, 0.21 for the second.

Compared with GUUAACGGUCAUAGGCCAUGGAAACUAGGAGCACCAUUUCGCUGCCAGUGAAGAAAUGAACAAAGAAACUCUGGGCCAGGCAGGCAUCAAAAGAACUAGUCUUGCGCUCAACCAGAAAGUCUGUAAUCAUUUUAAGGGUA [A69C A96C], GCUAACGGUCAUAGGCCAUGGAAACUAGGAGCACCAUUUCGCUGCCAGUGAAGAAAUGAACAAAGAAAAUCUGGGCCAGGCAGGCAUCAAAAGAAAUAGUCUCGCGCUCAACCAGAAAGUCUGUAAUCAUUUUAAGGGUA [U2C U103C] is lower in self-cleavage: 1.03 for the first, 0.99 for the second.

Going from GUUAACGGUCAUAGGCCAUGGAAACUAGGAGCACCAUUUCGCUGCCAGUGAAGAAAUGAACAAAGAAAAUCUGGACCAGGCAGGCAUCAGAAGAAAUAGUCUUGCGCUCAACCAGAAAGUCUGUAAUCAUUUUAAGGGUA [G75A A90G] to GUUAACGGUCAUAGGCCAUGGAAACUAGGAGCACCAUUUCGCUGCCAGUGAAGAAACGAACAAAGAAAAUCUGGGCCAGGCAGGCAUCAGAAGAAAUAGUCUUGCGCUCAACCAGAAAGUCUGUAAUCAUUUUAAGGGUA [U57C A90G], the self-cleavage rises from 0.13 to 0.97.

Going from GUUAACGGUCAUAGGCCAUGGAAACUAGGAGCACCAUUUCGCAGCCAGUGAAGAAAUGAUCAAAGAAAAUCUGGGCCAGGCAGGCAUCAAAAGAAAUAGUCUUGCGCUCAACCAGAAAGUCUGUAAUCAUUUUAAGGGUA [U43A A60U] to GUUAACGGUCAUAGGCCAUGGAAACUAGGAGCACCAUUUCGCUGCCAGUGAAGAAAUGAACAAAGAAAAUCUGGGCCAGGCAGGCAACAAAAGAAAUAGUCUUGCGCCCAACCAGAAAGUCUGUAAUCAUUUUAAGGGUA [U87A U108C], the self-cleavage falls from 1.88 to 0.02.

First: GUUAACGGUCAUAGGCCAUGGAAACUAGGAGCACUAUCUCGCUGCCAGUGAAGAAAUGAACAAAGAAAAUCUGGGCCAGGCAGGCAUCAAAAGAAAUAGUCUUGCGCUCAACCAGAAAGUCUGUAAUCAUUUUAAGGGUA [C35U U38C]
Second: GUUAACGGUCAUAGGCCUUGGAAACUAGGAGCACCAUUUCGCUGCCAGGGAAGAAAUGAACAAAGAAAAUCUGGGCCAGGCAGGCAUCAAAAGAAAUAGUCUUGCGCUCAACCAGAAAGUCUGUAAUCAUUUUAAGGGUA [A18U U49G]
The self-cleavage of the first is lower: 0.61 for the first, 1.01 for the second.

First: GUUAACGGUCAUAGGCCAUGGAAACUAGGAGCACCAUUUCGCUGCCAGUGAAGAAAUGAACAAAGAAAAUCUGGGCCAGGCAGGCAUCAAAAGAAAUAGUCUAGCGCUCAACCAGAAAGUCUGUAAUCAUUUUGAGGGUA [U103A A134G]
Second: GUUAACGGUCAUAGGCCAUGGAAGCUAGGAGCACCAUUUCGCUGCCAGUGAAGAAAUGAACAAAGAGAAUCUGGGCCAGGCAGGCAUCAAAAGAAAUAGUCUUGCGCUCAACCAGAAAGUCUGUAAUCAUUUUAAGGGUA [A24G A67G]
The self-cleavage of the first is lower: 0.27 for the first, 1.32 for the second.

Going from GUUAACGGUCAUAGGCCAUGGAAACUAGGAGCAACAUUUCGCUGCCAGUGAAGAGAUGAACAAAGAAAAUCUGGGCCAGGCAGGCAUCAAAAGAAAUAGUCUUGCGCUCAACCAGAAAGUCUGUAAUCAUUUUAAGGGUA [C34A A55G] to GUUAACGGUCAUUGGCCAUGGAAACUAGGAGCACCAUUUCGCUGCCAGUGAAGAAAUGAACAAAGAAAAUCUGGGCCAGGCAGGCAUCAAAAGAAAUAGUCUUGCGCUCGACCAGAAAGUCUGUAAUCAUUUUAAGGGUA [A13U A110G], the self-cleavage falls from 1.25 to 0.08.

Compared with GUUAACGGUCAUAGGCCAUGGAAACUAGGAGCACCAUUUCGCUGCCAGUGAUGAAAUGAACAAAGAAAAUCUGGGCCAGGCAGGCAUCGAAAGAAAUAGUCUUGCGCUCAACCAGAAAGUCUGUAAUCAUUUUAAGGGUA [A52U A89G], GUUAACGGUCAUAGGCCAUGGAAACUAGGAGCACCAUUUCGCUGCCGGUGAAGAAAUGAACAAAGAAAAUCUGGGCCAGGCAGGCAUCAAAAGAAAUAGUCUUGCGCUCAACCAGAAAGUCAGUAAUCAUUUUAAGGGUA [A47G U122A] is lower in self-cleavage: 1.56 for the first, 1.11 for the second.

First: GUUAACGGUCAUAGGCCAUGGAAACUAGGAGCACCGUUUCGCUGCCAGUGAAGAAAUGAACAAAGAAAAUCUGGGCCAGGCAGGCAUCAAAAGAAAUGGUCUUGCGCUCAACCAGAAAGUCUGUAAUCAUUUUAAGGGUA [A36G A98G]
Second: GUUAACGGUCAUAGGCCAUGGAAACUAGGAGCACCGUUUCGCUGCCAGUGUAGAAAUGAACAAAGAAAAUCUGGGCCAGGCAGGCAUCAAAAGAAAUAGUCUUGCGCUCAACCAGAAAGUCUGUAAUCAUUUUAAGGGUA [A36G A51U]
The self-cleavage of the first is lower: 1.54 for the first, 1.86 for the second.

Compared with GUUAACGGUCAUAGGCCAUGGAAACUAGGAGCACCAUUUCGCUGCCAGUGAAGAAAUGAACAAAGAAAAUCUGGGCCAGGCAGGCAUCAAAAGAAAUAGUCUUGCGCUCAACCGGAAAGUCUGUAAUCAUUUUAAGGGUU [A114G A140U], GUUAACGGUCAUAGGCCAUGGAAACUAGGAGCACCAUUUCGCUGCCAGUGAAGAAAUGAACAAAGAAAAUCUGGGCCAGGCAGGCAUCAAAAGAAAUAGUCUUGCGCUCAACCAGAAAGUCUGUUAUUAUUUUAAGGGUA [A125U C128U] is higher in self-cleavage: 0.41 for the first, 1.62 for the second.

Compared with GUUAACGGUCAUAGGCCAUGGAAACUAGGAGCACCAUUUCGCUGCCAGUGAAGAAAUGAACAAAGAAAACCUGGGCCAGGCAGGCAUCAAAAGAAAUAGUCUUGCGCUCAACCAGAAAGUCUGUAAUCAUUAUAAGGGUA [U70C U132A], GUUAACGGCCAUAGGUCAUGGAAACUAGGAGCACCAUUUCGCUGCCAGUGAAGAAAUGAACAAAGAAAAUCUGGGCCAGGCAGGCAUCAAAAGAAAUAGUCUUGCGCUCAACCAGAAAGUCUGUAAUCAUUUUAAGGGUA [U9C C16U] is higher in self-cleavage: 0.38 for the first, 1.59 for the second.

Compared with GUUAACGGUCAUAGGCCAUGGAAACUAGGAGCACCAUUUCGCUGCCAGCGAAGAAAUGAACAAAGAAAAUCUGGGCCCGGCAGGCAUCAAAAGAAAUAGUCUUGCGCUCAACCAGAAAGUCUGUAAUCAUUUUAAGGGUA [U49C A78C], GUUAACGGUCAUAGGCCAUGGAAACUAGGAGCACCAUUUCGCUGCCAGUGAAGAAAUGAACAAAGAAAAUCUGGGCCAGGCAGGCAUCAAAAGAAAUAGUCUUGCGCUCAACCAGAAAGUUUGUAAUCAUCUUAAGGGUA [C121U U131C] is higher in self-cleavage: 0.43 for the first, 2.02 for the second.

Compared with GUUAACGGUCAUAGGCCAUGGAAACUAGGAGCACCAUUUCGCUGCCAGUGAAGAAAUGAACAAAGAAAAUCCGGGCCAGGCAGGCAUCAAAAGAAAUAGUCUUGUGCUCAACCAGAAAGUCUGUAAUCAUUUUAAGGGUA [U72C C105U], GUUAACGGUCAUAGGCCAUGGAAACUAGGAGCACCAUUUCGCUGCCAGUGAAGAAAUGAACAAAGAAAAUCUGGGCCAGGCAGGCAUCUAAAGAAAUAGUCUUGCGCUCAACCAGAAAGUCUGUAAUCAUUAUAAGGGUA [A89U U132A] is higher in self-cleavage: 0.03 for the first, 1.35 for the second.

Going from GUUAACGGUCAUAGGCCAUGGAAACUAGGGGCACCAUUUCGCUGCCAGUGAAGAAAUGAACAAAGAAAAUCUGGGCCAGGCAGGCAUCAAAAGAAAUAGUCUUGCGCUCAACCAGAAAGUCCGUAAUCAUUUUAAGGGUA [A30G U122C] to GUUAACGGUCAAAGGCCAUGGAAACCAGGAGCACCAUUUCGCUGCCAGUGAAGAAAUGAACAAAGAAAAUCUGGGCCAGGCAGGCAUCAAAAGAAAUAGUCUUGCGCUCAACCAGAAAGUCUGUAAUCAUUUUAAGGGUA [U12A U26C], the self-cleavage rises from 0.84 to 2.17.

First: GUUAACGGUCAUAGGCCAUGGAAACUAGGAGCACCAUUUCGCUGCCAGUGAAGAAAUGAACAAAGAAAAUCUGGGCCAGGCAGGCAUCAAAAGAAAUAGUCUUGCGCUCGACCAGAAAGUCUGUAAUCAUUUUGAGGGUA [A110G A134G]
Second: GUUAACGGUCAUAGGCCAUGGAAACUAGGAGCACCAUUUCGCUGCCAGUGAAGAAAUGAACAAAGAGAAUCUGGGCCAGGCAGGCAUCAAAAGAAAUAGUCUUGCGCUCAACCAGAAAGUCUGUAAUCAUCUUAAGGGUA [A67G U131C]
The self-cleavage of the first is lower: 0.12 for the first, 1.2 for the second.

Compared with GUUAACGGUCAUAGGCCAUGGAAACUAGGAGCACCAUUUCGCUGCCAGUGAAGAAAUGAACAAAGAAAAUCUGGGCCAGGCAGUCAUCAAAAGAAAUAGUCUUGCGCUCAACCAGAAAGUCUGUAGUCAUUUUAAGGGUA [G84U A126G], GUUAACGGUCGUAGGCCAUGGAAACUAGGAGCACCAUUUCGCUGCCAGUGAAGAAAUGAACAAAGAAAAUCUGGGCCAGGCAGGCAUCAAAAGAAAUAGUCUUGCGCUCAACCAGAAAGUCUGUAAUCGUUUUAAGGGUA [A11G A129G] is higher in self-cleavage: 0.45 for the first, 0.83 for the second.

In the case of GUUAACGGUCAUAGGCCAUGGAUACUAGGAGCACCAUUUCGCUGCCAGUGAAGAAAUGAACAAAGAAAAUCUGGGCCAGGCAGGCAUCAAAAGAAAUAGUCUUGCGCUCAACCAGAAAGUCUGUAAUCAUUUUAAGGGUA [A23U], the self-cleavage is reported as 1.19.
